The data set deals with the molecule itself. Briefly: SAXS.

B1: Vac8[40–578] (domain or fragment, S. cerevisiae, UniProt P39968 40-578, looked up)
chain: QLDFYSGGPLKALTTLVYSDNLNLQRSAALAFAEITEKYVRQVSREVLEPILILLQSQDPQIQVAACAALGNLAVNNENKLLIVEMGGLEPLINQMMGDNVEVQCNAVGCITNLATRDDNKHKIATSGALIPLTKLAKSKHIRVQRNATGALLNMTHSEENRKELVNAGAVPVLVSLLSSTDPDVQYYCTTALSNIAVDEANRKKLAQTEPRLVSKLVSLMDSPSSRVKCQATLALRNLASDTSYQLEIVRAGGLPHLVKLIQSDSIPLVLASVACIRNISIHPLNEGLIVDAGFLKPLVRLLDYKDSEEIQCHAVSTLRNLAASSEKNRKEFFESGAVEKCKELALDSPVSVQSEISACFAILALADVSKLDLLEANILDALIPMTFSQNQEVSGNAAAALANLCSRVNNYTKIIEAWDRPNEGIRGFLIRFLKSDYATFEHIALWTILQLLESHNDKVEDLVKNDDDIINGVRKMADVTFERLQRSGIDVKNPGSNNNPSSNDNNSNNNDTGSEHQPVEDASLELYNITQQILQFLH
On to B1, for which the binding result is on record as “binds”.
